Measurements published in US20220177583A1.

B1: AB6 (antibody, V domains shown)
VH: DVQLQESGPGLVKSSQSLSLTCSVTGYSITSGYYWKWIRQFPGNKLEWMGYISYDGGINYNPSLKNRISITRDTSKNQFFLKLNSVTTEDTAKYYCARFGKGAMDYWGQGTSVTVSS
VL: AIVMFQSPSSLVVSAGEKVTMSCKSSQSLLNSRTRKNYLAWYQQKPGQSPKLLIYWASTRESGVPDRFTGSGSGTDFTLTISSVQAEDLAVYYCKQSYYLYTFGGGTKLEIK
B2: AB11-chim (antibody, V domains shown)
VH: DVQLVESGGGLVQPRGSRKLSCAASGFTFSSFGMHWVRQAPEKGLEWVAYISSDSRTIYYADTVKGRFTISRDNPTNTLFLQMTSLRSEDTAMYYCARDYGRTYEAYWGQGTLVTVSA
VL: DIVLTQSPASLAVSLGQRATISCRASKSVSTSGYSYIHWYQQKPGQPPKLLIYLASNLESGVPARFSGSGSGTDFTLNIHPVEEEDAATYYCQHSRELPLTFGAGTKLELK
B3: AB4-10 (antibody, V domains shown)
VH: QVQLVQSGAEVKKPGASVKMSCKASGYTFTSYTMHWIRQAPGQGQEWIGYINPSSTYTHYIKKFKDRATLTADTSTSTAYMELSSLRSEDTAVYYCSRGELGGFAYWGQGTLVTVSS
VL: DVVMTQSPLSLPVTLGQPASISCRSSQSLVHSDGNTYLNWYQQRPGQSPRLLIYKVSNRFSGVPDRFSGSGSGTDFTLKISRVEAEDVGVYYCSQSTHVPYTFGQGTKLEIK
B4: AB4-12 (antibody, V domains shown)
VH: QVQLVQSGAEVKKPGASVKMSCKASGYTFTSYTMHWIRQAPGQGQEWIGYINPSSTYTHYIKKFKDRATLTADKSTSTAYMELSSLRSEDTAVYYCSRGELGGFAYWGQGTLVTVSS
VL: DVVMTQSPLSLPVTLGQPASISCRSSQSLVHSDGNTYLNWYQQRPGQSPRLLIYKVSNRFSGVPDRFSGSGSGTDFTLKISRVEAEDVGVYYCSQSTHVPYTFGQGTKLEIK
B5: AB4-11 (antibody, V domains shown)
VH: QVQLVQSGAEVKKPGASVKMSCKASGYTFTSYTMHWIRQAPGQGLEWIGYINPSSTYTHYIKKFKDRATLTADKSTSTAYMELSSLRSEDTAVYYCSRGELGGFAYWGQGTLVTVSS
VL: DVVMTQSPLSLPVTLGQPASISCRSSQSLVHSDGNTYLNWYQQRPGQSPRLLIYKVSNRFSGVPDRFSGSGSGTDFTLKISRVEAEDVGVYYCSQSTHVPYTFGQGTKLEIK
B6: AB9-3 (antibody, V domains shown)
VH: QVQLVQSGAEVKKPGASVKMSCKASGYRFTDYNMHWVRQAPGQGLEWIGYINPNNGGTNYAQKFQGRATLTVDTSTSTAYMELSSLRSEDTAVYYCARDYLYFFDCWGQGTLLTVSS
VL: DIQMTQSPSSLSASVGDRVTITCLASQTIGTWLAWYQQKPGKAPKLLIYAAASLADGVPSRFSGSGSGTDFTFTISSLQPEDFVTYYCQQLYSIPRTFGQGTKLEIK
B7: AB9-4 (antibody, V domains shown)
VH: QVQLVQSGAEVKKPGASVKMSCKASGYRFTDYNMHWVRQAPGQGLEWIGYINPNNGGTNYAQKFQGRATLTVDTSTSTAYMELSSLRSEDTAVYYCARDYLYFFDCWGQGTLLTVSS
VL: DIQMTQSPSSLSASVGDRVTITCRASQTIGTWLAWYQQKPGKAPKLLIYAAASLADGVPSRFSGSGSGTDFTFTISSLQPEDFVTYYCQQLYSIPRTFGQGTKLEIK
B8: AB18-4 (antibody, V domains shown)
VH: QVQLVQSGAEVKKPGASVKVSCKASGYSFTGYNMNWVRQAPGQGLEWMGNIDPYYGGSTYAQKFQGRVTMTVDTSTSTVYMELSSLRSEDTAVYYCARERSGYVFSAMDYWGQGTLVTVSS
VL: DIVMTQSPDSLAVSLGERVTMNCKSSQSVLFSSNQKNYLAWYQQKPGQPPKLLIYWASTRESGVPDRFSGSGSGTDFTLTISSVQAEDVAVYYCHQYLSSRTFGQGTKLEIK
B9: AB18-6 (antibody, V domains shown)
VH: QVQLVQSGAEVKKPGASVKISCKASGYSFTGYNMNWVRQAPGQGLEWIGNIDPYYGGSTYAQKFQGRATLTVDTSTSTAYMELSSLRSEDTAVYYCARERSGYVFSAMDYWGQGTLVTVSS
VL: DIVMTQSPDSLAVSLGERVTMNCKSSQSVLFSSNQKNYLAWYQQKPGQPPKLLIYWASTRESGVPDRFSGSGSGTDFTLTISSVQAEDVAVYYCHQYLSSRTFGQGTKLEIK
B10: AB11-2 (antibody, V domains shown)
VH: EVQLVESGGGLVQPGGSLRLSCAASGFTFSSFGMHWVRQAPGKGLEWVAYISSDSRTIYYADSVKGRFTISRDNAKNSLYLQMNSLRAEDTAVYYCARDYGRTYEAYWGQGTLVTVSS
VL: DIVMTQSPDSLAVSLGERATINCRASKSVSTSGYSYIHWYQQKPGQPPKLLIYLASNLESGVPDRFSGSGSGTDFTLTISSLQAEDVAVYYCQHSRELPLTFGQGTKLEIK
B11: AB11-3 (antibody, V domains shown)
VH: EVQLVESGGGLVQPGGSLRLSCAASGFTFSSFGMHWVRQAPGKGLEWVAYISSDSRTIYYADSVKGRFTISRDNAKNSLYLQMNSLRAEDTAVYYCARDYGRTYEAYWGQGTLVTVSS
VL: DIVLTQSPDSLAVSLGERATINCRASKSVSTSGYSYIHWYQQKPGQPPKLLIYLASNLESGVPDRFSGSGSGTDFTLTISSVQAEDVAVYYCQHSRELPLTFGQGTKLELK
B12: AB5 (antibody, V domains shown)
VH: EVQLQQSGPELVKPGASVKMSCKASGYIFTHYIMHWVKQKPGQGLEWIGCINPYNDGTKYNEKFKGKATLTSDKSSSTAYMELSSLTSEDSAVYYCARYYGYPYYSMDYWGQGTSVTVSS
VL: DVLMTQTPLSLPVSLGDQPSISCRSSQSIVHSNGNTYLDWYLQKPGQSPKLLIYKVSNRFSGVPDRFSGSGSGTDFTLKISRVEAEDLGVYYCFQGSHVPFTFGSGTRLEIK
B13: AB18-chim (antibody, V domains shown)
VH: QVQLKQSGPELEKPGASVKISCKASGYSFTGYNMNWVKQSNGKSLEWIGNIDPYYGGSTYNQKFTGKATLTVDKSSSTAYMQLKSLTSEDSAVYYCARERSGYVFSAMDYWGQGTSVTVSS
VL: NIMMTQSPSSLAVSAGEKVTMSCKSSQSVLFSSNQKNYLAWYQQKPGQSPRLLIYWASTRESGVPDRFTGSGSGTDFTLTISNVQAEDLAVYYCHQYLSSRTFGAGTKLELK
B14: AB9-chim (antibody, V domains shown)
VH: EVQLQQSGPELVKPGASVKMSCKASGYRFTDYNMHWVKQSHGKSLEWIGYINPNNGGTNYNQNFKGKATLTVNKSSSTAYMELRSLTSEDSAAYYCARDYLYFFDCWGQGTTLTVSS
VL: DIQMTQSPASQSASLGESVTITCLASQTIGTWLAWYQQKPGKSPQLLIYAAASLADGVPSRFSGSGSGTRFSFKISSLQAEDFVSYYCQQLYSIPRTFGGGTKLEIK
B15: AB4 (antibody, V domains shown)
VH: QVQLQQSGAELARPGASVKMSCKASGYTFTSYTMHWIKQRPGQGQEWIGYINPSSTYTHYIKKFKDKATLTADKSSSTAYMQLRSLTSEDSAVYYCSRGELGGFAYWGQGTLVTVSA
VL: DVVMTQTPLSLPVSLGDQASISCRSSQSLVHSDGNTYLNWYLQKPGQSPKLLIYKVSNRFSGVPDRFSGSGSGTDFTLKIRRVEAEDLGVYFCSQSTHVPYTFGGGTKLEIK
B16: AB1 (antibody, V domains shown)
VH: QVQLQQSAAELARPGASVKMSCKASGYTFTTYTMHWVKQRPGQGLEWIGFINPSSGYTDYNQKFKDRTTLTADKSSSTVYMQLSSLTSEDSAVYYCANGDYYVAYWGQGTLVTVSA
VL: QIVLTQSPAIMSASLGERVTMTCTASSSVSSTYFHWYQQKPGSSPKLWIYSTSNLASGVPRRFSGSASGTSYSLTISSMEAEDAATYYCHQYHRSPLTFGAGTKLELK
B17: AB7 (antibody, V domains shown)
VH: EVQLQQSGPELVKPGASMKISCKASGYSFTGYTMNWVKQSHGKNLEWIGLINPYNGGTNYNQKFKGKATLTVDKSSSTAYMELLSLTSEDSAVYYCARGVYDYDGFTYWGQGTLVTVSA
VL: QIVLTQSPAIMSASLGDRVTMTCTASSSVSSSYLHWYQQKPGSSPKLWIYSTSNLASGVPARFSGSGSGTSYSLTISSMEAEDAATYYCHQYHRSPPTFGSGTKLEIK
B18: AB3 (antibody, V domains shown)
VH: EVKLEESGGGLVQPGGSMKLSCVASGFTFSNYWMNWVRQSPEKGLEWVAQIRLKSDNYATHYAESVKGRFTISRDDSKRSVYLQMNNLRAEDTGTYYCNDGPPSGCWGQGTTLIVSS
VL: DIQMTQSPASLSASVGETVTITCRISENIYSYLAWYQQKQGKSPQLLVYNAKILVEGVPSRFSGSGSGTQFSLKINSLQPEDFGNYYCQHHYTVPWTFGGGTKLEIK
B19: AB2 (antibody, V domains shown)
VH: EVKLEESGGGLVQPGGSMKLSCVASGFTFSDYWMNWVRQSPEKGLEWVAQIRLKSDNYATHYAESVKGRFTISRDDSKRSVYLQMNNLRAEDTGTYYCNDGPPSGCWGQGTTLIVSS
VL: DIQMTQSPASLSASVGETVTITCRISENIYSYLAWYQQKQGKSPQLLVYNAKILVEGVPSRFSGSGSGTQFSLKINSLQPEDFGNYYCQHHYTVPWTFGGGTKLEIK

What was measured:
[1] = biological target: human CLDN6 fused to GFP, expressed on engineered HEK293T cells (human) (UniProt P56747); experiment: FACS dose curve, labelled mAb, HEK293T-CLDN6-mGFP cells
[2] = biological target: CLDN3/4 endogenously expressed on LS513 and MCF7 cells; experiment: FACS dose curve, labelled mAb, LS513 cells
[3] = biological target: CLDN3/4 endogenously expressed on LS513 and MCF7 cells; experiment: FACS dose curve, labelled mAb, MCF7 cells
[4] = biological target: human CLDN6 fused to GFP, expressed on engineered HEK293T cells (human) (UniProt P56747); experiment: FACS, 293T clone with human CLDN6, 0.3 ug Ab
[5] = biological target: human CLDN6 fused to GFP, expressed on engineered HEK293T cells (human) (UniProt P56747); experiment: FACS, 293T clone with human CLDN6, 1.5 ug Ab

| Binder | EC50 [1] | EC50 [2] | EC50 [3] | FACS signal [4] | FACS signal [5] |
| --- | --- | --- | --- | --- | --- |
| B1 | 1430 nM | 133 nM | 1140 nM |  |  |
| B2 |  |  |  | 1670 | 3490 |
| B3 |  |  |  | 50800 | 77200 |
| B4 |  |  |  | 71100 | 86200 |
| B5 |  |  |  | 37800 | 61200 |
| B6 |  |  |  | 9500 | 24600 |
| B7 |  |  |  | 15300 | 34300 |
| B8 |  |  |  | 32400 | 54400 |
| B9 |  |  |  | 26900 | 58500 |
| B10 |  |  |  | 1290 | 2560 |
| B11 |  |  |  | 1010 | 2360 |
| B12 | 10 nM | 781 nM | 1480 nM |  |  |
| B13 |  |  |  | 73800 | 135000 |
| B14 |  |  |  | 46700 | 72000 |
| B15 | 17 nM | 730 nM | 653 nM |  |  |
| B16 | 109 nM | 5000 nM | 5000 nM |  |  |
| B17 | 579 nM | 635 nM | 979 nM |  |  |
| B18 | 604 nM | 5000 nM | 5000 nM |  |  |
| B19 | 182 nM | 5000 nM | 5000 nM |  |  |
